Results as given in patent US20240124575A1 (SIMCERE ZAIMING PHARMACEUTICAL, published 2024).

Columns and labels:
[1] = target: T1, human CD33-His (extracellular domain Asp 18-His 259) (human, UniProt P20138 18-259); test: competitive ELISA vs coated SGN-33 3ug/mL; soluble 25ug/ml
T1 construct: range 18-259; bought protein; also called hCD33-his; human CD33 protein; not shown: His tag

[2] = target: T1, human CD33-His (extracellular domain …); test: competitive ELISA vs coated S006-NB146-139 3ug/mL; soluble 25ug/ml
[3] = target: T1, human CD33-His (extracellular domain …); test: competitive ELISA vs coated C33B904 3ug/mL; soluble 25ug/ml
monkey CD33-His protein = target: T2, monkey CD33-His protein (monkey); test: ELISA on coated monkey CD33-his
T2 construct: also called monkey CD33 protein

[4] = target: T1, human CD33-His (extracellular domain …); test: ELISA, antigen coated
Method: (§1) In order to assay the binding activity of VHH-Fc to human CD33 protein, a human CD33-his protein (purchased from ACROBiosystems, Cat. No. CD3-H5226) was diluted with PBS to make a final concentration of 2 μg/mL, and then added into a 96-well ELISA plate at 100 μL/well. The plate was sealed with a plastic film and incubated at 4° C. overnight, washed twice with PBS the next day, and a blocking solution [PBS+2% (w/w) BSA] was added for blocking at room temperature for 2 h. The blocking solution was discarded, and VHH-Fc antibody or negative control antibody serially diluted from 100 nM was added at 50 μL/well. After incubation at 37° C. for 2 h, the plate was washed 3 times with PBS. A secondary antibody labeled with HRP (horseradish peroxidase) (purchased from Sigma, Cat. No. A0170) was added. After incubation for 1 h at 37° C., the plate was washed 5 times with PBS. A TMB substrate was added at 50 μL/well. After incubation at room temperature for 10 min, a stop solution (1.0 N HCl) was added at 50 μL/well. The OD450 nm values were read on an ELISA plate reader (Multimode Plate Reader, EnSight, purchased from Perkin Elmer). The assay results for the binding of the VHH-Fc to hCD33-his by ELISA are shown in FIGS. 7A and 7B and Tables 11 and 12. […] The IgG control was hIgG1, and the data in the table are OD450 nm values.

human CD33-his protein [5] = target: T3, human CD33-his protein (human, UniProt P20138 18-259); test: competition ELISA, coated human CD33-his, vs Biotin-C33B904 at EC80; antibody 62.50 nM
T3 construct: range 18-259; bought protein; also called hCD33-his; recombinant human CD33-his; not shown: His tag
Method: (§2) ELISA plates were coated with 2 μg/mL human CD33-his protein according to the method in Example 5.1; the Biotin-C331B904 antibody was subjected to a gradient dilution from 15 μg/mL, and EC80 values (0.18 μg/mL) were calculated. ELISA plates were coated with 2 μg/mL human CD33-his protein; starting from 40 μg/mL, the VHH antibodies to be tested were diluted in a 1:2 dilution ratio to obtain seven concentrations and added to the ELISA plates, and then Biotin-C331904 antibodies with the EC80 concentrations were added for incubation for 2 h. The plates were washed 5 times with PBS and then […] (purchased from Sigma, Cat. No. S2438) were added for incubation for 1 h, and the plates were washed 5 times. A TMB substrate was added at 50 μL/well and incubated at room temperature for 10 min, then a stop solution (1.0 M HCl) was added at 50 μL/well. OD_{450 nm} values were read using an ELISA plate reader (Insight, purchased from PerkinElmer). Then, analysis was performed by software (GraphPad Prism8), and data were fitted for curve plotting. The results are shown in FIGS. 13A-13B and Tables 28 and 29.

human CD33-his protein [6] = target: T3, human CD33-his protein; test: competition ELISA, coated human CD33-his, vs Biotin-C33B904 at EC80; antibody 0.98 nM
Method: as §2

human CD33-his protein [7] = target: T3, human CD33-his protein; test: competition ELISA, coated human CD33-his, vs Biotin-C33B904 at EC80; antibody 15.63 nM
Method: as §1, with “The” for “In order to assay the binding activity of VHH-Fc to human CD33 protein, a human CD33-his protein (purchased from ACROBiosystems, Cat. No. CD3-H5226) was diluted with PBS to make a final concentration of 2 μg/mL, and then added into a 96-well ELISA plate at 100 μL/well. The”
ELISA plates were coated with 2 μg/mL human CD33-his protein according to the method in Example 5.1; the Biotin-C331B904 antibody was subjected to a gradient dilution from 15 μg/mL, and EC80 values (0.18 μg/mL) were calculated. […] OD_{450 nm} values were read using an ELISA plate reader (Insight, purchased from PerkinElmer). […]

T3 sequence (P20138 18-259 limits assumed): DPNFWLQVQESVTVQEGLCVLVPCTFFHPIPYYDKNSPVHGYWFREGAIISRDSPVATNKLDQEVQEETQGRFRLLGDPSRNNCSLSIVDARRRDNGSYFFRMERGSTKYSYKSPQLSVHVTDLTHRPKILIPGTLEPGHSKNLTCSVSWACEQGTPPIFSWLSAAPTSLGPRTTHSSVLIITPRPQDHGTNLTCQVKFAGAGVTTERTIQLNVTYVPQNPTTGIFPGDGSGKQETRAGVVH
T1 sequence (P20138 18-259 limits assumed): as above

Binder	inhibition rate [1] [%]	inhibition rate [2] [%]	inhibition rate [3] [%]	EC50 (read off the curve) (monkey CD33-His protein) [nM]	OD450 at 0.0001 nM [4] [OD450]	OD450 at 0.001 nM [4] [OD450]	OD450 at 0.01 nM [4] [OD450]	OD450 at 0.1 nM [4] [OD450]	OD450 at 1 nM [4] [OD450]	OD450 at 10 nM [4] [OD450]	OD450 at 100 nM [4] [OD450]	OD450 (Biotin-C33B904 signal) (human CD33-his protein [5])	OD450 (Biotin-C33B904 signal) (human CD33-his protein [6])	OD450 (Biotin-C33B904 signal) (human CD33-his protein [7])
C33B904 hIgG1 (antibody, V domains shown, intact human IgG1; variable regions from US20190382481A1; also called C33B3904; C331B904) VH: EVQLVESGGGLVQPGRSLRLSCAASGFTFDDYAMHWVRQAPGKGLEWVSGIGWSGGSIVYADSVKGRFTISRDNAKNSLYLQMNSLRAEDTALYYCAKDSPYGDFFDYWGQGTLVTVSS VL: DIVMTQSPDSLAVSLGERATINCKSSQTVFYSSNNKNYLAWYQQKPGQPPKLLISWASTRKSGVPDRFSGSGSGTDFTLTVSSLQAEDVAVYYCQHYYSTPYTFGQGTKLEIKR	14	101	86	~0.1	0.04	0.05	0.14	0.53	1.92	2.55	2.61			
C33B904 (antibody, human IgG1, kappa, V domains shown, control antibody, intact human IgG1 form; variable regions from US20190382481A1; also called C33B904 hIgG1; C331B904) VH: EVQLVESGGGLVQPGRSLRLSCAASGFTFDDYAMHWVRQAPGKGLEWVSGIGWSGGSIVYADSVKGRFTISRDNAKNSLYLQMNSLRAEDTALYYCAKDSPYGDFFDYWGQGTLVTVSS VL: DIVMTQSPDSLAVSLGERATINCKSSQTVFYSSNNKNYLAWYQQKPGQPPKLLISWASTRKSGVPDRFSGSGSGTDFTLTVSSLQAEDVAVYYCQHYYSTPYTFGQGTKLEIKR												0.32	2.22	1.03
